In patent US20160289305A1 (INTERNATIONAL AIDS VACCINE INITIATIVE, published 2016):

Target: T1, YU2 gp120 (HIV-1, UniProt P35961 32-498)
T1 construct: domain: gp120
Experiment: ELISA

B1: VRC-PG-05 (antibody, V domains shown)
VH: EVQLVESGGGLVQPGGSLRLSCAASGFPFNRDWMTWVRQAPGKGLEWVANINMDGDKKDYVDSVKGRFTISRDNAKTSLYLQMNSLRAGDTAVYYCARIRQVSKYLQWYPGVFEMWGQGTMVTVSS
VL: DIVMTQSPDSLAVSLGERATIHCKSSQSVLYRPNNRNYVAWYQQKPGQPPRLLIHWASFRESGVPDRFTGSGSGTDFTLTISSLQAEDVAVYYCQQYFFLYSFGGGTKLEIN
Does B1 bind?
Result: binds
